Sequences and labels used below:
B1: CPEB3 Ribozyme (parent)
chain: GGGGGCCACAGCAGAAGCGUUCACGUCGCGGCCCCUGUCAGAUUCUGGUGAAUCUGCGAAUUCUGCUGU

Variants of B1 are the subject of this data set. Put plainly: self-cleavage, relative activity (ratio to wild type); higher = more cleavage; co-transcriptional.
For GGGGGCCACAGCAGAAGCGUUUACGUCGCGGCCCCUGUCAGAUGCUGGUGAAUCUGCGAAUUCUGCUGU [C22U U44G], the self-cleavage amounted to 0.241. As to GGGGGCCACAGCAGAAGCGUUUACGUCGCGGCCCCUGUCAGAUACUGGUGAAUCUGCGAAUUCUGCUGU [C22U U44A], the self-cleavage is 0.318. On to GGGGGCCACAGCAGAAGCGUUUACGUCGCGGCCCCUGUCAGAUCCUGGUGAAUCUGCGAAUUCUGCUGU [C22U U44C], for which the self-cleavage came to 0.31. On to GGGGGCCACAGCAGAAGCGUUCCCGUCGCGGCCGCUGUCAGAUUCUGGUGAAUCUGCGAAUUCUGCUGU [A23C C34G], for which the self-cleavage worked out at 0.36. In the case of GGGGGCCACAGCAGAAGCGUUCCCGUCGCGGCCACUGUCAGAUUCUGGUGAAUCUGCGAAUUCUGCUGU [A23C C34A], the self-cleavage worked out at 0.696. Regarding GGGGGCCACAGCAGAAGCGUUCCCGUCGCGGCCUCUGUCAGAUUCUGGUGAAUCUGCGAAUUCUGCUGU [A23C C34U], the self-cleavage was 0.936. Take GGGGGCCACAGCAGAAGCGUUCCCGUCGCGGCCCCUGUGAGAUUCUGGUGAAUCUGCGAAUUCUGCUGU [A23C C39G]: the self-cleavage came out at 0.905. GGGGGCCACAGCAGAAGCGUUCCCGUCGCGGCCCCUGUAAGAUUCUGGUGAAUCUGCGAAUUCUGCUGU [A23C C39A]: the self-cleavage came to 0.798. For the variant GGGGGCCACAGCAGAAGCGUUCCCGUCGCGGCCCCUGUCAUAUUCUGGUGAAUCUGCGAAUUCUGCUGU [A23C G41U], the self-cleavage was 0.815. For GGGGGCCACAGCAGAAGCGUUCCCGUCACGGCCCCUGUCAGAUUCUGGUGAAUCUGCGAAUUCUGCUGU [A23C G28A] the value was 0.206; for GGGGGCCACAGCAGAAGCGUUCCCGUCCCGGCCCCUGUCAGAUUCUGGUGAAUCUGCGAAUUCUGCUGU [A23C G28C], 0.183. For the variant GGGGGCCACAGCAGAAGCGUUCCCGUCGCGGCCCCUGUCGGAUUCUGGUGAAUCUGCGAAUUCUGCUGU [A23C A40G], the self-cleavage turned out to be 0.92. Under GGGGGCCACAGCAGAAGCGUUCCCGUCGCGGCCCCUAUCAGAUUCUGGUGAAUCUGCGAAUUCUGCUGU [A23C G37A] stands 0.3; under GGGGGCCACAGCAGAAGCGUUCCCGUCGCGGCCCCUCUCAGAUUCUGGUGAAUCUGCGAAUUCUGCUGU [A23C G37C], 0.254; under GGGGGCCACAGCAGAAGCGUUCCCGUCGCGGCCCCUGUCAGGUUCUGGUGAAUCUGCGAAUUCUGCUGU [A23C A42G], 0.901. As to GGGGGCCACAGCAGAAGCGUUCCUGUCGCGGCCCCUGUCAGAUUCUGGUGAAUCUGCGAAUUCUGCUGU [A23C C24U], the self-cleavage came to 0.52. As to GGGGGCCACAGCAGAAGCGUUCCGGUCGCGGCCCCUGUCAGAUUCUGGUGAAUCUGCGAAUUCUGCUGU [A23C C24G], the self-cleavage was determined as 0.414.

Take GGGGGCCACAGCAGAAGCGUUCCAGUCGCGGCCCCUGUCAGAUUCUGGUGAAUCUGCGAAUUCUGCUGU [A23C C24A]: the self-cleavage was determined as 0.785.

On to GGGGGCCACAGCAGAAGCGUUCCCGUCGCGGCCCCUGUCAGAUUCUGGUGAAUCUGCGACUUCUGCUGU [A23C A60C], for which the self-cleavage was determined as 0.327.

As to GGGGGCCACAGCAGAAGCGUUCCCGUCGCGGCCCCUGUCAGAUUCUGGUGAAUCUGCGAGUUCUGCUGU [A23C A60G], the self-cleavage came to 0.828. Turning to GGGGGCCACAGCAGAAGCGUUCCCGUCGCGGCCCCUGUCAGAUUCUGGUGCAUCUGCGAAUUCUGCUGU [A23C A51C], the self-cleavage came out at 0.942. Turning to GGGGGCCACAGCAGAAGCGUUCCCGUCGCGGCCCCUGUCAGAUUCUGGUGGAUCUGCGAAUUCUGCUGU [A23C A51G], the self-cleavage turned out to be 0.899. Under GGGGGCCACAGCAGAAGCGUUCCCGUCGCGGCCCCUGUCAGAUUCUGGUGUAUCUGCGAAUUCUGCUGU [A23C A51U] stands 0.959; under GGGGGCCACAGCAGAAGCGUUCCCGUCGCGGCCCCUGUCAGAUUCUGCUGAAUCUGCGAAUUCUGCUGU [A23C G48C], 0.924.

Take GGGGGCCACAGCAGAAGCGUUUACGUCGCGGCCCCUGUCAGAUUCUGGUGAACCUGCGAAUUCUGCUGU [C22U U53C]: the self-cleavage was found to be 0.227.

With GGGGGCCACAGCAGAAGCGUUUACGUCGCGGCCCCUGUCAGAUUCUGGUGAAGCUGCGAAUUCUGCUGU [C22U U53G], the self-cleavage turned out to be 0.111. Under GGGGGCCACAGCAGAAGCGUUUACGUCGCGGCCCCUGUCAGAUUCUGGUGAAACUGCGAAUUCUGCUGU [C22U U53A] stands 0.193. On to GGGGGCCACAGCAGAAGCGUUUACGUCGCGGCCCCUGUCAGAUUCUGGUGAAUCUGCGAAUUCAGCUGU [C22U U64A], for which the self-cleavage was 0.21.

As for GGGGGCCACAGCAGAAGCGUUUACGUCGCGGCCCCUGUCAGAUUCUGGUGAAUCUGCGAAGUCUGCUGU [C22U U61G], the self-cleavage was 0.264. GGGGGCCACAGCAGAAGCGUUUACGUCGCGGCCCCUGUCAGAUUCUGGUGAAUCUGCGAACUCUGCUGU [C22U U61C]: the self-cleavage turned out to be 0.134. Regarding GGGGGCCACAGCAGAAGCGUUUACGUCGCGGCCCCUGUCAGAUUCUGGGGAAUCUGCGAAUUCUGCUGU [C22U U49G], the self-cleavage was 0.247. In the case of GGGGGCCACAGCAGAAGCGUUUACGUCGCGGCCCCUGUCAGAUUCUGGCGAAUCUGCGAAUUCUGCUGU [C22U U49C], the self-cleavage is 0.294. Consider GGGGGCCACAGCAGAAGCGUUCCCGUCGCGGCCCCUGUCAGAUUCUGGUGAAUCUGCGAAUUCUGCUGU [A23C], for which the self-cleavage is 0.957. With GGGGGCCACAGCAGAAGCGUUCCCGUCGCGGCCCCUGUCAGAUUGUGGUGAAUCUGCGAAUUCUGCUGU [A23C C45G], the self-cleavage amounted to 0.931.

In the case of GGGGGCCACAGCAGAAGCGUUCCCGUCGCGGCCCCUGUCAGAUUUUGGUGAAUCUGCGAAUUCUGCUGU [A23C C45U], the self-cleavage turned out to be 0.961.

As to GGGGGCCACAGCAGAAGCGUUCCCGUCGCGGCCCCUGUCAGAUUAUGGUGAAUCUGCGAAUUCUGCUGU [A23C C45A], the self-cleavage came out at 0.986. With GGGGGCCACAGCAGAAGCGUUCCCGUCGCGGCCCCUGUCAGAUUCUGGUGAAUCUGCGAAUUCUGUUGU [A23C C66U], the self-cleavage was determined as 0.94. For the variant GGGGGCCACAGCAGAAGCGUUCCCGUCGCGGCCCCUGUCAGAUUCUGGUGAAUCUGCGAAUUCUGAUGU [A23C C66A], the self-cleavage amounted to 0.908. Consider GGGGGCCACAGCAGAAGCGUUCCCGUAGCGGCCCCUGUCAGAUUCUGGUGAAUCUGCGAAUUCUGCUGU [A23C C27A], for which the self-cleavage turned out to be 0.463.

The values are drawn from the RNAGym collection of RNA variant scans (doi:10.7554/elife.80360).
